In US9120865B2, “T cell epitopes of the Cyn d 1 allergen from bermuda grass pollen” (Circassia Limited, priority 2001, dated 2015):

Columns and labels:
[1] = system: oligoclonal T cell blasts from Bermuda grass pollen-specific T cell lines; assay: Oligoclonal T cell proliferation assay (3HTdR incorporation); type: cell-based, human; conditions: for number of patients in whom the peptide elicited proliferation: 13 Cyn d 1-reactive patients, SI≧2.5 considered significant
From the text: Bermuda grass pollen-specific T cell lines were isolated with the use of our well-established methods for thegeneration of allergen-specific T cell populations (O'Hehir, R. E., Young, D. B., Kay, A. B., Lamb, J. R., Immunology, 62:635-640, 1987; O'Hehir, R. E., Askonas, B. A., Lamb, J. R., Vol 3, Heidelberg:Springer-Verlag, p 120-138, 1993). Briefly, PBMC were separated from heparinized venous blood by density gradient centrifugation over Ficoll Paque (Pharmacia, Sweden). PBMC were initially stimulated for 1 week in 24-well plates (Costar, USA; 2.5×10^6 PBMC/well) with a previously determined optimal concentration of Bermuda grass pollen extract (50 μg/ml) for 7 days in complete medium (RPMI-1640 medium, Gibco Life Technologies, supplemented with 2 mmol/L L-glutamine, 100 IU/ml penicillin/streptomycin, and 5% screened, heat inactivated human AB^+ serum, Sigma Chemical Company, USA) at 37° C., 5% CO2. A two week line was established by restimulating the T cell blasts with Bermuda grass pollen extract in the presence of irradiated (3000 rads) autologous PBMC every 7 days, with the addition of interleukin-2 (5% vol/vol; Lymphocult-TLF, Biotest Folex, Frankfurt, Germany) every 3-4 days. In all experiments, T cells were rested for 7 days after the last addition of antigen and antigen presenting cells (APC) before use in proliferation assays. We have previously shown that CD4+ T cells are preferentially expanded in these cultures.
Oligoclonal T cell blasts (5×10^4/well) from the Bermuda grass pollen-specific T cell lines were stimulated in triplicate with Bermuda grass pollen extract (25, 50, 100 μg/ml), purified Cyn d 1 (2.5, 5, 10 μg/ml) and the Cyn d 1 peptides (1, 10 μg/ml) in the presence of an equal number of irradiated autologous PBMC as APC for 72 hours in 96-well round bottom plates (ICN Biomedicals, USA). Cultures of T cells and APC in the absence of antigen or with added IL-2 were included as negative and positive controls respectively. After 72 hours, cultures were pulsed with 1 μCi/well of tritiated methyl thymidine (^3HTdR; Amersham, USA) and harvested 16 hours later onto glass fibre filters. Proliferation as correlated with ^3HTdR incorporation was measured by liquid scintillation spectroscopy. Results are expressed as change in mean counters per minute above background (Acpm) or as a stimulation index (SI, cpm of antigen stimulated T cells divided by cpm of unstimulated T cells) to allow easier comparison between subjects with different background incorporation. Stimulation index values ≧2.5 are considered significant. Production of IL-5 and IFN-γ by Bermuda grass pollen-specific oligoclonal T cells

IL-5 = assay: Production of IL-5 by Bermuda grass pollen-specific oligoclonal T cells (sandwich ELISA of culture supernatants); type: cell-based, human; conditions: pre-SIT; supernatants at 48 hours
Protocol: (§1) Production of IL-5 and IFN-γ by cultured oligoclonal T cells was assessed by harvesting supernatants from proliferation assays at 48 hours after stimulation, with replacement by an equal volume of complete medium, and measurement of cytokine levels by sandwich ELISA. White 96-well maxisorp ELISA plates (Nalgene NUNC, Denmark) were coated with rat anti-mouse/human IL-5 (PharMingen, USA) or mouse anti-human IFN-γ (endogen, USA) at 2 μg/ml and incubated overnight at 4° C. The plates were washed with 0.5% Tween 20/PBS and blocked with 1% BSA/PBS for 1 hour at room temperature. The plates were washed again and the culture supernatants from pooled triplicate assays added in duplicate to the wells. A standard curve was established using known concentrations of human recombinant IL-5 (PharMingen, USA) and IFN-γ (Endogen, USA). The plates were incubated with either 1 μg/ml biotinylated rat anti-human IL-5 (PharMingen, USA) or 0.5 μg/ml biotinylated mouse anti-human IFN-γ (Endogen, USA) for 1 hour at room temperature. After washing the plates, streptavidin-biotinylated horseradish peroxidase (Amersham, USA), at a dilution of 1:2000, was added to each well and incubated for 45 minutes at room temperature. […] The plates were read on a LumiCount microplate glow luminometer (Packard Instrument Company, USA). […]

IFN-γ = assay: Production of IFN-γ by Bermuda grass pollen-specific oligoclonal T cells (sandwich ELISA of culture supernatants); type: cell-based, human; conditions: pre-SIT; supernatants at 48 hours
Protocol: as §1

[2] = system: oligoclonal house dust mite-reactive CD4+ T cells; assay: Mitogenicity check with irradiated PBMC; type: cell-based, human; conditions: data not shown
Protocol: (§2) Antigens • (i) Bermuda grass pollen. • Bermuda grass pollen was purchased from Greer Laboratories Inc. (Lenoir, N.C., USA) as dry, non-defatted pollen. One gram of pollen was extracted in 5 ml of 1 mM NH4HCO3 overnight at 4° C. on a rotating wheel. After centrifugation, the supernatant was dialyzed against PBS overnight. The extract was filtered through a 0.2 μm filter. The protein content of the extract was determined using the Bio-Rad Microassay (Bio-Rad, USA). • (ii) Cyn d 1. • Cyn d 1 was generated by the Bermuda grass pollen extract first undergoing an 80% ammonium sulphate precipitation. […] The protein content was determined using the Bio-Rad Microas say. • (iii) Peptides. • Synthetic peptides (20-mers overlapping by 11 or, for the two N-terminal peptides, 15 residues) spanning the entire length of the Cyn d 1 molecule were purchased from Mimotopes (Clayton, Australia; FIG. 2) (CD1 isoform, Smith et al., 1996, supra). • (iv) Mitogenicity and Toxicity. • Mitogenicity of Bermuda grass pollen, Cyn d 1 and Cyn d 1 peptides was excluded by culturing with oligoclonal house dust mite-reactive CD4^+ T cells in the presence of irradiated peripheral blood mononuclear cells (PBMC), and toxicity was excluded by co-culture of antigens with the HDM-reactive T cells in the presence of IL-2 (data not shown).

HDM-reactive T cells = assay: Toxicity check by co-culture of antigens in the presence of IL-2; type: cell-based, human; conditions: data not shown
Protocol: as §2

IgE = conditions: sera from Bermuda grass pollen-allergic patients; cited from earlier work

Molecule: EGGAHLVQDDVIPANWKPDT (human) [Cyn d 1(217-236), synthetic 20-mer peptide of Cyn d 1, residues 217-236]
- number of patients in whom the peptide elicited proliferation ([1]; pre-immunotherapy): 8 patients

Molecule: LVQDDVIPANWKPDTVYTSK (human) [Cyn d 1(222-241), synthetic 20-mer peptide of Cyn d 1, residues 222-241]
- number of patients in whom the peptide elicited proliferation ([1]; pre-immunotherapy): 6 patients

Molecule: MKSSWGAIWRIDPKKPLKGP (human) [Cyn d 1(190-209), synthetic 20-mer peptide of Cyn d 1, residues 190-209]
- number of patients in whom the peptide elicited proliferation ([1]; pre-immunotherapy): 6 patients

Molecule: PKDSDEFIPMKSSWGAIWRI (human) [Cyn d 1(181-200), synthetic 20-mer peptide of Cyn d 1, residues 181-200]
- number of patients in whom the peptide elicited proliferation ([1]; pre-immunotherapy): 6 patients

Molecule: SGKAFGAMAKKGQEDKLRKA (human) [Cyn d 1(109-128), synthetic 20-mer peptide of Cyn d 1, residues 109-128]
- number of patients in whom the peptide elicited proliferation ([1]; pre-immunotherapy): 8 patients

B1: Cyn d 1: major allergen protein of Bermuda grass pollen, purified from the pollen extract by ammonium sulphate precipitation and G-75 Sephadex (protein)
chain: AIGDKPGPNITATYGNKWLEAKATFYGSNPRGAAPDDHGGACGYKDVDKPPFDGMTACGNEPIFKDGLGCGACYEIKCKEPVECSGEPVLVKITDKNYEHIAAYHFDLSGKAFGAMAKKGQEDKLRKAGELTLQFRRVKCKYPSGTKITFHIEKGSNDHYLALLVKYAAGDGNIVAVDIKPKDSDEFIPMKSSWGAIWRIDPKKPLKGPFSIRLTSEGGAHLVQDDVIPANWKPDTVYTSKLQFGA
modifications: human
notes: major allergen protein of Bermuda grass pollen, purified from the pollen extract by ammonium sulphate precipitation and G-75 Sephadex
- change in proliferative responses / recognition ([1]; following SIT): marked decrease
- patients with decreased proliferation ([1]; following one year of SIT): 11/13
- patients whose Bermuda grass pollen-specific T cell lines showed proliferative T cell responses ([1]; pre-immunotherapy, 2-week T cell lines from 14 patients): 13/14
- IL-5 secreted in response to stimulation (IL-5): High levels
- IFN-γ secreted in response to stimulation (IFN-γ): High levels
- Mitogenicity [2]: excluded
- toxicity (HDM-reactive T cells): excluded
- predominant humoral recognition (IgE): > 76%
